Assay [1] has as its target Full-length mouse eRF1 (mouse) (UniProt Q8BWY3). Description: ITC; 22 °C, MicroCal VP-ITC; 20 mM HEPES pH 7.5, 150 mM NaCl, 5 mM TCEP; injectant protein 220-300 μM into a cell with 13-20 μM protein; single-site model. (ITC needs no label: the signal is the heat of the interaction.)
Assay [2] has the same target. Description: ITC; competition: RNase H (WT or mutant) titrated to the preformed eRF1/eRF3 complex; apparent Kd; 22 °C, 20 mM HEPES pH 7.5, 150 mM NaCl, 5 mM TCEP; single-site model.

Consider “Isolated RNase H domain of MoMLV RT (aa 500–671) (domain or fragment)”, for which the Kd was 4.18 µM in assay [1] and 5.6 µM in assay [2].

“RNase H mutant F588A (isolated RNase H domain of MoMLV RT) (domain or fragment)” came in with a fold reduction of binding against WT RNase H in assay [1] of 10 fold.

The values above are taken from PMC4917968.
